The text below walks through data of US20200216495A1 (ADRX, published 2020).

Values joined by “and” are separate entries in the source; they are usually repeats but may differ in a detail not shown here. Equal entries are not always repeated. Square brackets hold non-standard residues; d marks the D form. Ends that are not written are not given here.

The target in this assay is Ac-VQIINK-NH2 (SEQ ID NO: 23) (N-terminal acetyl (Ac); C-terminal amide (NH2)). Nature of the assay: cell-based or functional assay.
For [dF][dR][dL][dK][dV][dR][dW][dF] [frlkvrwf], the “VQIINK Inhibition IC50” value is 1.26 µm and 2.57 µm.
Turning to [dW][dR][dL][dK][dV][dR][dW][dL] [wrlkvrwl], the “VQIINK Inhibition IC50” value stood at 1.37 µm.
Take [dW][dR][dF][dH][dI][dH][dF][dY] [wrfhihfy]: the “VQIINK Inhibition IC50” value was found to be 1.35 µm.
For [dL][dK][dI][dR][dI][dA][dY] [lkiriay], the “VQIINK Inhibition IC50” value was 1.41 µm.
Regarding [dF][dR][dI][dR][dI][dH][dH][dW] [fririhhw], the “VQIINK Inhibition IC50” value came out at 0.82 µm.
For [dF][dK][dL][dK][dL][dW][dW] [fklklww] the value was 1.3 µm; for [dW][dK][dV][dW][dV][dR][dY][dW] [wkvwvryw], 1.53 µm.
Consider [dL][dD][dL][dR][dF][dK][dL][dY] [ldlrfkly], for which the “VQIINK Inhibition IC50” value amounted to 1.55 µm.
Next, [dF][dK][dI][dE][dL][dH][dW][dH] [fkielhwh]: 1.41 µm.
Next, [dW][dR][dL][dK][dV][dR][dW][dE] [wrlkvrwe]: 1.54 µm.
Consider [dF][dR][dI][dK][dL][dK][dW][dH] [friklkwh], for which the “VQIINK Inhibition IC50” value is 1.52 µm.
For [dW][dR][dL][dW][dI][dH][dW] [wrlwihw] the value was 1.73 µm; for [dF][dE][dI][dR][dL][dW][dH][dH] [feirlwhh], 1.17 µm.
For [dW][dK][dL][dK][dL][dW][dW][dW] [wklklwww] the value was 1.44 µm; for [dF][dK][dL][dK][dL][dR][dW] [fklklrw], 1.2 µm.
On to [dW][dR][dL][dK][dV][dR][dW][dR] [wrlkvrwr], for which the “VQIINK Inhibition IC50” value was determined as 1.7 µm.
For [dL][dK][dI][dR][dI][dF][dY][dH] [lkirifyh], the “VQIINK Inhibition IC50” value stood at 1.53 µm.
Regarding [dF][dH][dI][dH][dI][dK][dF][dH] [fhihikfh], the “VQIINK Inhibition IC50” value amounted to 1.16 µm.
In the case of [dL][dK][dI][dR][dI][dE][dH][dY] [lkiriehy], the “VQIINK Inhibition IC50” value stood at 1.57 µm.
Regarding [dL][dA][dI][dR][dI][dH][dY] [lairihy], the “VQIINK Inhibition IC50” value was determined as 1.71 µm.
[dL][dE][dI][dK][dI][dR][dH][dW] [leikirhw]: the “VQIINK Inhibition IC50” value turned out to be 1.15 µm.
For [dF][dW][dL][dK][dL][dR][dW][dF] [fwlklrwf] the value was 1.63 µm; for [dL][dK][dI][dR][dI][dR][dY][dH] [lkiriryh], 1.49 µm and 2.92 µm.
Consider [dR][dL][dK][dV][dR][dW][dW][dW] [rlkvrwww], for which the “VQIINK Inhibition IC50” value was 1.21 µm.
For the molecule [dF][dR][dI][dK][dI][dR][dW] [frikirw], the “VQIINK Inhibition IC50” value turned out to be 1.47 µm.
On to [dF][dE][dL][dR][dL][dH][dW][dH] [felrlhwh], for which the “VQIINK Inhibition IC50” value turned out to be 1.57 µm.
Regarding [dW][dR][dI][dW][dI][dR][dY][dW] [wriwiryw], the “VQIINK Inhibition IC50” value turned out to be 1.2 µm.
Regarding [dM][dR][dL][dR][dI][dH][dW] [mrlrihw], the “VQIINK Inhibition IC50” value was found to be 1.58 µm.
Consider [dF][dK][dI][dR][dI][dK][dW][dH] [fkirikwh], for which the “VQIINK Inhibition IC50” value is 1.3 µm.
Next, [dL][dK][dI][dR][dI][dR][dF][dH] [lkirirfh]: 1.24 µm.
Consider [dW][dF][dK][dI][dK][dL][dE][dL] [wfkiklel], for which the “VQIINK Inhibition IC50” value came out at 1.74 µm.
Next, [dW][dR][dI][dR][dI][dR][dW] [wririrw]: 1.73 µm; [dL][dK][dI][dR][dI][dE][dY] [lkiriey]: 1.05 µm.
For the molecule [dF][dH][dI][dR][dI][dR][dH][dW] [fhirirhw], the “VQIINK Inhibition IC50” value was 1.1 µm.
Regarding [dW][dK][dV][dQ][dV][dR][dL][dW] [wkvqvrlw], the “VQIINK Inhibition IC50” value is 0.94 µm.
In the case of [dW][dR][dL][dR][dI][dW][dW] [wrlriww], the “VQIINK Inhibition IC50” value worked out at 1.34 µm.
Regarding [dW][dR][dL][dN][dV][dN][dW] [wrlnvnw], the “VQIINK Inhibition IC50” value turned out to be 1.38 µm.
In the case of [dL][dR][dV][dQ][dV][dR][dL] [lrvqvrl], the “VQIINK Inhibition IC50” value is 1.48 µm.
For the molecule [dL][dK][dI][dL][dI][dH][dY][dH] [lkilihyh], the “VQIINK Inhibition IC50” value was 1.41 µm.
For [dH][dY][dH][dI][dR][dI][dK][dL] [hyhirikl], the “VQIINK Inhibition IC50” value worked out at 0.96 µm.
Consider [dW][dL][dR][dV][dQ][dV][dK][dW] [wlrvqvkw], for which the “VQIINK Inhibition IC50” value amounted to 1.08 µm.
For [dW][dQ][dL][dK][dV][dR][dW] [wqlkvrw] the value was 0.97 µm; for [dL][dR][dL][dK][dV][dR][dW][dL] [lrlkvrwl], 0.93 µm; for [dF][dE][dL][dH][dI][dK][dW][dH] [felhikwh], 1.29 µm.
Regarding [dW][dK][dV][dN][dV][dR][dL][dW] [wkvnvrlw], the “VQIINK Inhibition IC50” value was 1.29 µm.
For [dF][dK][dL][dK][dL][dW][dW][dF] [fklklwwf] the value was 1.15 µm; for [dF][dE][dL][dK][dL][dR][dW][dH] [felklrwh], 1.03 µm; for [dW][dR][dL][dR][dL][dR][dW] [wrlrlrw], 1.54 µm.
For [dW][dW][dR][dV][dK][dL][dR][dW] [wwrvklrw], the “VQIINK Inhibition IC50” value came to 1.57 µm.
For the molecule [dW][dR][dF][dK][dV][dR][dW] [wrfkvrw], the “VQIINK Inhibition IC50” value turned out to be 1.66 µm.
Turning to [dL][dE][dF][dE][dL][dK][dY][dW] [lefelkyw], the “VQIINK Inhibition IC50” value amounted to 1.38 µm.
As for [dF][dK][dI][dK][dL][dK][dW] [fkiklkw], the “VQIINK Inhibition IC50” value amounted to 1.55 µm.
Take [dL][dK][dI][dR][dI][dL][dY][dH] [lkirilyh]: the “VQIINK Inhibition IC50” value worked out at 1.46 µm.
Next, [dF][dR][dL][dR][dI][dW][dW] [frlriww]: 1.4 µm.
On to [dW][dK][dL][dW][dL][dR][dW][dW] [wklwlrww], for which the “VQIINK Inhibition IC50” value was determined as 1.58 µm.
As to [dW][dL][dR][dV][dQ][dV][dK][dL][dW] [wlrvqvklw], the “VQIINK Inhibition IC50” value is 1.25 µm.
